Experimental data: ChEMBL document CHEMBL1250451, “Mechanistic insights into a Ca2+-dependent family of alpha-mannosidases in a human gut symbiont” (Nat Chem Biol, 2010); call rule not given here

Columns and labels:
Assay type in all cases: protein assay
[1] = substrate: O=[N+]([O-])c1ccc(O[C@H]2O[C@H](CO)[C@@H](O)[C@H](O)[C@@H]2O)cc1; experiment: (§1) Activity of Bacteroides thetaiotaomicron GH92 alpha-mannosidase 2199 D648A mutant assessed as as mannose release after 16 hrs by HPLC relative to wild type enzyme
[2] = substrate: OC[C@H]1O[C@H](O[C@H]2[C@@H](O)[C@H](O)[C@@H](CO)O[C@@H]2O)[C@@H](O)[C@@H](O)[C@@H]1O; experiment: as §1
[3] = substrate: O=[N+]([O-])c1ccc(O[C@H]2O[C@H](CO)[C@@H](O)[C@H](O)[C@@H]2O)cc1; experiment: (§2) Ratio of Kcat to Km for Bacteroides thetaiotaomicron GH92 alpha-mannosidase 2199 D648A mutant assessed as as mannose release after 16 hrs by HPLC relative to wild type enzyme
[4] = substrate: OC[C@H]1O[C@H](O[C@H]2[C@@H](O)[C@H](O)[C@@H](CO)O[C@@H]2O)[C@@H](O)[C@@H](O)[C@@H]1O; experiment: as §2
[5] = substrate: O=[N+]([O-])c1ccc(O[C@H]2O[C@H](CO)[C@@H](O)[C@H](O)[C@@H]2O)cc1; experiment: (§3) Activity of Bacteroides thetaiotaomicron GH92 alpha-mannosidase 2199 D648N mutant assessed as as mannose release after 16 hrs by HPLC relative to wild type enzyme
[6] = substrate: OC[C@H]1O[C@H](O[C@H]2[C@@H](O)[C@H](O)[C@@H](CO)O[C@@H]2O)[C@@H](O)[C@@H](O)[C@@H]1O; experiment: as §3
[7] = substrate: O=[N+]([O-])c1ccc(O[C@H]2O[C@H](CO)[C@@H](O)[C@H](O)[C@@H]2O)cc1; experiment: (§4) Ratio of Kcat to Km for Bacteroides thetaiotaomicron GH92 alpha-mannosidase 2199 D648N mutant assessed as as mannose release after 16 hrs by HPLC relative to wild type enzyme
[8] = substrate: OC[C@H]1O[C@H](O[C@H]2[C@@H](O)[C@H](O)[C@@H](CO)O[C@@H]2O)[C@@H](O)[C@@H](O)[C@@H]1O; experiment: as §4
[9] = substrate: O=[N+]([O-])c1ccc(O[C@H]2O[C@H](CO)[C@@H](O)[C@H](O)[C@@H]2O)c([N+](=O)[O-])c1; experiment: (§5) Ratio of Kcat to Km for Bacteroides thetaiotaomicron GH92 alpha-mannosidase GH92 alpha-mannosidase 3990 assessed as mannose release after 16 hrs by HPLC
[10] = substrate: O=[N+]([O-])c1ccc(O[C@H]2O[C@H](CO)[C@@H](O)[C@H](O)[C@@H]2O)cc1; experiment: as §5
[11] = substrate: OC[C@H]1O[C@H](O[C@H]2[C@@H](O)[C@H](O)[C@@H](CO)O[C@@H]2O)[C@@H](O)[C@@H](O)[C@@H]1O; experiment: as §5
[12] = substrate: O=[N+]([O-])c1ccc(O[C@H]2O[C@H](CO)[C@@H](O)[C@H](O)[C@@H]2O)cc1; experiment: (§6) Activity of Bacteroides thetaiotaomicron GH92 alpha-mannosidase GH92 alpha-mannosidase 3990 assessed as mannose release after 16 hrs by HPLC
[13] = substrate: OC[C@H]1O[C@H](O[C@H]2[C@@H](O)[C@H](O)[C@@H](CO)O[C@@H]2O)[C@@H](O)[C@@H](O)[C@@H]1O; experiment: as §6

B1: Alpha-1,2-mannosidase (BT_2199) (Bacteroides thetaiotaomicron), Q8A5N9 D648A (protein)
chain: MVTRLFFLSICFPFLLTSCQQSKKTVEFVDYVNPLMGTESTFAFSHGNTYPAVAVPWGMNFWSPQTGENGSGWMYTYTDSLMRGFRQTHQPSPWINDYGTFSIMPLAGELKMSHKERLVPFSHQQEKATPYNYSVTFNNGLQTSLSATSRGAVFEVSFPEKEDQYVVVDAYNGGSSITIEPEKRLVKGATRYNNGGVPDNFANYFMMEFSHPVIEYGTYNGDTLLHHQTDVAADYTCAYLKFDVPAGEKLTIRTASSFISPEQAAINFNREVADADVQLISGKAREQWNNYLGRVEAEGGTDEQLRTFYSCLYRTLLFPREFYEFDSQGNPVYYSPYDGNVHDGYMYTDNGFWDTFRAVHPLFTLLYPEVSERVTQSIINAYNESGFMPEWASPGHRGCMIGNNSVSLLVDAWMKGIQTVDAEKALEAMIHQTQARHAEIASVGRDGFEYYDKLGYVPYPEVPEATAKTLEYAYADWCIARFAESLGKQDIADQYYQKAPNYRNLYYPEHGFMWTKDAKGNWRDRFDATEWGGPFTEGSSWHWTWSVFHDPEGLSELMGGHEPMIARLDSMFVAPNTYNYGTYGFVIHEIAEMVALNMGQYAHGNQPVQHAIYLYDYIGQPWKTQYHLRNVMDKLYNSGSKGYCGDEANGQTSAWYVFSAMGFYPVCPGMPEYAIGSPLFKKVTLHLPEGKNFVVSAADNAADRPYIRKALLNGQEFTRNYLTHDELKQGGELNLSMDSVPNQQRGTQPADFPYSYSK
Km [1]: Not Active
kcat [1]: Not Active
Km [2]: 2720 µM
kcat [2]: 0.000433 s⁻¹
kcat/Km [3]: Not Active
kcat/Km [4]: 0.167 M⁻¹ s⁻¹

B2: Alpha-1,2-mannosidase (BT_2199) (Bacteroides thetaiotaomicron), Q8A5N9 D648N (protein)
chain: MVTRLFFLSICFPFLLTSCQQSKKTVEFVDYVNPLMGTESTFAFSHGNTYPAVAVPWGMNFWSPQTGENGSGWMYTYTDSLMRGFRQTHQPSPWINDYGTFSIMPLAGELKMSHKERLVPFSHQQEKATPYNYSVTFNNGLQTSLSATSRGAVFEVSFPEKEDQYVVVDAYNGGSSITIEPEKRLVKGATRYNNGGVPDNFANYFMMEFSHPVIEYGTYNGDTLLHHQTDVAADYTCAYLKFDVPAGEKLTIRTASSFISPEQAAINFNREVADADVQLISGKAREQWNNYLGRVEAEGGTDEQLRTFYSCLYRTLLFPREFYEFDSQGNPVYYSPYDGNVHDGYMYTDNGFWDTFRAVHPLFTLLYPEVSERVTQSIINAYNESGFMPEWASPGHRGCMIGNNSVSLLVDAWMKGIQTVDAEKALEAMIHQTQARHAEIASVGRDGFEYYDKLGYVPYPEVPEATAKTLEYAYADWCIARFAESLGKQDIADQYYQKAPNYRNLYYPEHGFMWTKDAKGNWRDRFDATEWGGPFTEGSSWHWTWSVFHDPEGLSELMGGHEPMIARLDSMFVAPNTYNYGTYGFVIHEIAEMVALNMGQYAHGNQPVQHAIYLYDYIGQPWKTQYHLRNVMDKLYNSGSKGYCGDENNGQTSAWYVFSAMGFYPVCPGMPEYAIGSPLFKKVTLHLPEGKNFVVSAADNAADRPYIRKALLNGQEFTRNYLTHDELKQGGELNLSMDSVPNQQRGTQPADFPYSYSK
Km [5]: Not Active
kcat [5]: Not Active
Km [6]: 1270 µM
kcat [6]: 0.000483 s⁻¹
kcat/Km [7]: Not Active
kcat/Km [8]: 0.383 M⁻¹ s⁻¹

B3: Alpha-1,2-mannosidase (BT_3990) (Bacteroides thetaiotaomicron), Q8A0N1 (protein)
chain: MKRLLLIACILNCTLLSQAKDWTQYVNPLMGSQSTFELSTGNTYPAIARPWGMNFWTPQTGKMGDGWQYTYTANKIRGFKQTHQPSPWINDYGQFSIMPIVGQPVFDEEKRASWFAHKGEVATPYYYKVYLAEHDIVTEMTPTERAVLFRFTFPENDHSYVVVDAFDKGSYIKIIPEENKIIGYTTRNSGGVPENFKNYFIIEFDKPFTYKATVENGNLQENVAEQTTDHAGAIIGFKTRKGEQVNARIASSFISFEQAAANMNELGKDNIEQLAQKGKDAWNQVLGKIEVEGGNLDQYRTFYSCLYRSLLFPRKFYELDANGQPIHYSPYNGQVLPGYMFTDTGFWDTFRCLFPLLNLMYPSVNKEMQEGLINTYLESGFFPEWASPGHRGCMVGNNSASILVDAYMKGVKVDDIKTLYEGLIHGTENVHPEVSSTGRLGYEYYNKLGYVPYDVKINENAARTLEYAYDDWCIYRLAKELKRPKKEISLFAKRAMNYKNLFDKESKLMRGRNEDGTFQSPFSPLKWGDAFTEGNSWHYTWSVFHDPQGLIDLMGGKEMFVTMMDSVFAVPPIFDDSYYGQVIHEIREMTVMNMGNYAHGNQPIQHMIYLYDYAGQPWKAQYWLRQVMDRMYTPGPDGYCGDEDNGQTSAWYVFSALGFYPVCPGTDEYVMGTPLFKKATLHFENGNSLVIDAPNNSTENFYIDSMSFNGADHTKNYLRHEDLFKGGTIKVDMSNRPNLNRGTKEEDMPYSFSKE
kcat/Km [9]: 16.7 M⁻¹ s⁻¹
kcat/Km [10]: 21.7 M⁻¹ s⁻¹
kcat/Km [11]: 113000 M⁻¹ s⁻¹
Km [12]: 4200 µM
kcat [12]: 0.0933 s⁻¹
Km [13]: 760 µM
kcat [13]: 86.7 s⁻¹
